In the nanobody polyreactivity screen of Harvey et al. (2022):

Assay: yeast display, Sf9 membrane polyspecificity reagent, FACS + sequencing; frameworks hold sequencing errors
In short: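 Nanobodies from a synthetic yeast display library (Saccharomyces cerevisiae BJ5465), induced 36–48 hours with galactose, were stained 1 hour at 4 °C with 10% biotinylated, detergent-solubilized Sf9 membrane reagent, enriched on streptavidin microbeads, then FACS-sorted. Anti-HA (expression) and streptavidin (reagent binding) fluorescence set low and high (top ~1%) gates. Polyreactivity labels come from the gate of origin. Genes were colony-PCR amplified, MiSeq 2 × 250 sequenced and filtered by CDR length.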

Row | Sequence | polyreactivity (PSR sort gate)
1 | QVQLVESGGGLVQAGGSLRLSCAASGRILYNYAMGWYRQAPGKECELVAAISSGGSTNYADSVKGRFTISRDNAKNTVYFQMNSLKPEDTAVYYCAAYRGHSWRGLYRWSDYDFWGQGTQVTVSS | low polyreactivity
2 | QVQLVESGGGLVQAGGSLRLSCAASGRTFLYYAMGWYRQAPGKERELVAGITSGGSTNYADSVKGRFTITRDNAKNTVYLQMNSLKPEDTAVYYCAVDQGYSRTADVNYDYWGQGTQVTVSS | low polyreactivity
3 | QVQLVESGGGLVQAGGSLRLSCAASGSIFGIYAMGWYRQAPGKERELVAAISWSGGSTYYADSVKGRFTISRDNAKNTVYLQMNSLKPEDTAVYYCNADVQLFGWWYGMDYWGQGTQVTVSS | high polyreactivity
4 | QVQLVESGGGLVQAGGSLRLICAASGRIFALYAMGWYRQAPGKEREFVATITRGASTNYADSVKGRFTISRDNAKNTVYLQMNSLKPVDTAVYYCAAAGYKAAGRVVASYYWGQGTQVTVSS | high polyreactivity
5 | QVHLVESGGGLVQAGGSLRLSCAASGSTFVRNVMGWYRQAPGKERELVAAITRSGDTTYYADSVKGRFTISRDNAKNTVYLQMNSLKPEDTAVYHCAKRTFVRRGSIYPIDDYWGQGTQVTVSS | low polyreactivity
6 | QVQLVESGGGLVQAGGSLRLSCAASGSIFPIYAMGWYRQAPGKERELVAAIDSSGGSTYYADSVKGRFTISRDNAKNTVYLQMNSLKPEDTAVYYCAADFGSKSTPYDYWGQGTQVTVSS | low polyreactivity
7 | QVQLVESGGGLVQAGGSLRLSCAASGSIFTIYAMGWYRQAPGKERELVAAISFSGGSTYYADSVKGRFTISRDNAKNTVYLQMNSLKPEDTAVYYCAADGGFTYDNWGQGTQVTVSS | low polyreactivity
8 | QVQLVESGGGLVQAGGSLRLSCAASGSIFDGYAMGWYRQAPGKEREFVASIRFSTGRTYYADSVKGRFTISRDNAKNSVYLQMNSLKPEDTAGYYCNAPQGFVWRYSSWGPYDYWGQGTQVTVSS | high polyreactivity
9 | QVQLVESGGGLVQAGGSLRLSCAASGNTIDSYAMGWYRQAPGKERELVAAISTSGGSTYYADSVKGRFTISRDNAKNTVYLQMNSLKPEDTAVYYCNATWTITYDYWGQGTQVTVSS | low polyreactivity
10 | QVQLVESGGGLVQAGGSLRLSCAASGIIFNSYAMGWYRQAPGKERELVATISGSGGSTYYADSVKGRFTISRDNAKNTVYFQMNSLKPEDTAVYSCAARTGRYYRRYDYWGQGTQVTVSS | high polyreactivity
11 | QVQLVESGGGLVQAGGSLRLSCAASGSIFAQYTMGWYRQAPGKERELVAVISFRGGSTYYADSVKGRFTISRDNAKNTVYLQMNSLKPEDTAVYYCATVGTYPGYGEFDYWGQGTQVTVSS | low polyreactivity
12 | QLQLVESGGGLVQAGGSLRLSCAASGFTFSAYAMGSYRQAPGKERELVAAISWSGGSTYYADSVKGRFTISRDNAKNTVYLQRNSLKPEDTAVYYCAADFHSYYRFDYWGQGTQVTVSS | high polyreactivity
13 | QVQLVESGGGLVQAGGSLRLSCAASGRIFRNYAMGWYRQAPGKERELVAAISYTTGSTYYADSVKGRFTISRDNAKNTVYLQMNSLKPEDTAVYYCATTDWYFKFYYWGQGTQVTVSS | high polyreactivity
14 | QVQLVESGGGLVQAGGSLRLSCAASGRTSVYNAMGWYRPAPGKERELVAAIRGGGGNTYYADSVKGRFTISRDNAKNTVYLQMNSLKPADTAVYYCAKGSVVYLLRGVKGHSMDYWGQGTQVTVSS | low polyreactivity
15 | QFQLVESGGGLVQEGGSLRLSCAASGRTLAKNAMGWYRQAPGKEREFVAAISRRGGSTYYADSVKGRFTISRDYAKYTVYLQLNSLKREDTAVYYCARASRQGYYQLSYDEFDYWGQGTQVTVSS | high polyreactivity
16 | QVQLVESGGGLVQAGGSLRLSCAASGSIFSFYAVGWYRQAPGKERELVAALSSGGSTYYADSVKGRFTISGDNAKNTVYLQMNSLIPEDTAVYYCAADPYRYNFRAYGWYREGYYWGQGTQVTVSS | low polyreactivity
17 | QVQLVESGGGLVQAGGSLRLSCAASGFIFSSNAMGWYRQAPGKERELVATISFSGESTYYADSVKGRFTISRDNAKNTVYLQMNSLKPEDTAVYYCARRTYYRWYKYGYYDYNYWRQGTQVTVSS | low polyreactivity
18 | QVQLVESGGLLVQAGGSLRLSCAASGFNFYNYAMGWYRQAPGKERELVAAISKRGGRTYYADSVKGRFTISRDNAKITVYLQMNRLKPVDTAVYYCNTDAVRPYHVAWYDYWGQGTQVTVSS | high polyreactivity
19 | QVQLVESGGGLVQAGGSLRLSCAASGITFTENLMGWYRQAPGKERELVAGISRSGGITYFADSVKGRFTISRDNAKNTVYLQMNSLKPEDTSVYYCAADFYASYSPYYYWGQGTQVTVSS | high polyreactivity
20 | QVQLVESGGGLVQAGGSLRLSCAASGIIFHRYAMGWYRQAPGKERELVAAISWNGGSTYYADSVKGRFTISRDNAKNTVYLQMNSLKPEDTAVYYCAARKLYSNISGYWGQGTLVTVSS | high polyreactivity
21 | QVQLVESGGGLVQAGGSLRLSCAASGSIFVGNAMGWDRQAPGKERELVATLSWSGGSTYYADSVKGRFTISRDNAKNTVDLQMNSLNPEDTAVYYCAKTPYRRYRYGGYTYRTYDYWGQGTQVTVSS | low polyreactivity
22 | QVQLVESGGGLVQAGGSLRLSCATSGFIFSLYAMGWYRQAPGKERELVAAINWNGGRTYYADSVKGRFTISRDNAKNTVYLQMDSLKPEDTAVYYCATRSGSYSYPAVGGWGLGYWGQGTQVTVSS | high polyreactivity

Row | Sequence | polyreactivity (PSR sort gate)
23 | QVQLVESGGGLVQAGGSLRLSCAASGGTFSYNAMGWYRQAPGKERELVAAISWSGTRTYYADSVKGRFTISRDNAKNTVYLQMNSLKPEDTAVYYCNKPPPNRGRYDYWGQGTQVTVSS | low polyreactivity
24 | QVQLVESGGGLVQAGGSLRLSCAASGIILRYYVMGWYRQAPGKERELVAAITSRGGSTYYADSVKGRFTISRDNAKITVYLQMNSLKPEDTAVYYCAAGYRNVNTFDYWGQGTQVTVSS | high polyreactivity
25 | QVQHVESGGGLVQAGGSLRLSCAASGRTFYSYAMGWYRQAPGKDRELVAAITSDGGTYYADSVKGRFTISRDNAKNTVYLQMNSLKPDDTAVYYCNTRDLYGYPQVTGYDYWGQGTQVTVSS | low polyreactivity
26 | QVQLVESGGGLVQAGGSLRLSCAASGSTFGVNAMGWYRQAPGKERELVAAIRSAVPTYYADSVKGRFTISRDNAKNTVYLQMNSLKPEDTAVYYCAKRWSAKYGFYYWGQGTQVTVSS | high polyreactivity
27 | QVQLVESGGGLVQAGGSLRLSCAASGRIFVTYVMGWYRQAPGKERELVAAISRRGGTTYYADSVKGRFTISRDNAKNTVYLQMNSLKPEDTAVYYCNVARDYAVESGYWGQGTQVTVSS | high polyreactivity
28 | QVQLVESGGGLVQAGGSLRLSCAASGFIFRDYVMGWYRQAPGKERELVAAISYRGGSTNYADSVKGRFTISRDNAKNTVYLQMNSLKPEDTAVYSCAADQVHKREYDYWGQGTQVTVSS | low polyreactivity
29 | QVQLVESGGGLVQAGGSLRISCAASGSILGLYAMGWYRQAPGKERELVAAITYRGGRTDYADSVKGRFTISRDNAKNTVYLQMNSLKPEDTAVYYCAAGYLPRPRYSTSYLYYYWGQGTQVTVSS | high polyreactivity
30 | QVQLVESGGGLVQAGGSLRLSCSASGSIFPHYAMGWYRQAPGKERELVAAISRSGTSTYYADSVKGRFTISRDNAKNTVYLQMNSLKPEDTAVYYCNAYQVYTRTYGYCGQGTQVTVSS | high polyreactivity
31 | QVHLVESGGGLVQAGGSLRLTCAASGIIFRWYAMGWYRQAPGKERELVAAISSGGGRTHYADSVKGRFTISRDNAKNTVYLQMNSLKPEDTAVYYCAAALRGQSSRFDYWGQGTQVTVSS | high polyreactivity
32 | QVQLVESGGGLVQAGGSLRLSCAASGFTFGENDMGWYRQAPGKERELVATISYSGDSTYYAVSVKGLFTISRVNGKNTVYLHMNSLKPEDTAVYYCAAPLPHRVYDEGYWRQGTQVTVSS | low polyreactivity
33 | QVQLVESGGGLVQAGGSLRLSCAASAYTFYAMGWYRQAPGKERELVAAITYRGARTYYADSVKRRFTISRDNEKNTVYLQMNSLKPEYTAVYYCNADYWGQGTQVTVSS | low polyreactivity
34 | QVQLVESGGCLVQAGGSLRLSCAASGITFRRYTMGWYRQAPGKERELVATISLSDGNTYYADSVKGRFTISRDNAKNSVYLQMNSLKPEDTAVYYCNADSTTQVYDYWGQGTQVTVSS | low polyreactivity
35 | QVQLVESGGGIVQAGGSLRLSCAASGGIFYRNAMGWYRQAPGKERELVAAISWRGGSTYYADSVKGRFTNSRDNAKNTVYLQMNSLKPEDTAVYFCAARSVATYRYDYWGQGTQVTVSS | high polyreactivity
36 | QVQLVESGGGLVQAGGSLRLSCAASGLIFYRYVMGWYRQAPGKEREFVAAISSGGSTYYADSVKGLFTISRDNAKNTVYLQMNSLKPEDTAVYYCNTLSQVFASRAPKFDYWGQGTQVTVSS | high polyreactivity
37 | QVQLEESGGGLVQAGGSLRLSCAASGRISGFNAMGWYRKAPGKEREFVAAISYRGGYTYADSVKGRFTISRDNAKNTVYLQMNSLKPEDTAVYYCNALWRGHGRYNYWGQGTQVNVSS | low polyreactivity
38 | QVQLVESGVGLVQAVGSLRISCAACGSIFGRYGMGWYRQAPGKERELVAAITSGTRTNYADSVKGRFTISRDNAKNTVYLQMNSLKPEDTAVYYCNALRLRGIYEYGYWGLGTQVTVSS | low polyreactivity
39 | QVQLVESGGGLVQAGGSLRISCAASGSIFDLNPMGGYRQAPGKERELVAAISSGGGTYYADSVKGRFTISRDNAKNTVYLQMNRLIPEDTAVYYCIRVTRWTSNYWGQCTQVTVSS | high polyreactivity
40 | QVQLVESGGGLVQAGGSLRLSCAASGFIFDWYAMGWYRQAPGKERELVAAINESGGDTYYADSVKGRFTISRDNAKNTVYLQMNSLKPEDTAVYYCAARTYHRYDYWGQGTQVTVSS | high polyreactivity
41 | QVQLEESGGGLVQAGGSLRLSCAASGRTFSIYAMGWYRQAPGKERELVASITGRGTRTYYADSVKGRFTISRDNAKNTVYLQMNSLKPEDTAVYYCNARGKVQSSYDDDYWGQGTQVTVSS | high polyreactivity
42 | QVQLVESGGGLVQAGGSLRLSCAASGRTFYIYVMGWDRQAPGKERELVAGITVRGGITNYADSVKGGFTSSRDNAKNTVYLQMNSLKPEDTAVYYCAVDDLGSEYDYWGQGTQVTVSS | low polyreactivity
43 | QVQLVESGGGLVQAGGSLRLSCAASGRNFRVYAMGWYRQAPGKESELVAAITSGGTTYADSVKGRFTISRDNAKNTGYLQMNSLQPEDTAVYYCAARYYIHRGYDYDYWGQGTQVTVSS | high polyreactivity
